Test: soluble on expression in E. coli; label from the status in PepcDB or PDB records

Sequence: MARTAVPDNQPEITGFRIVLNNFEGPFDLLLQLISAKKLDVTDVALHKVTDDFVAYTRALGEFAELDEVTEFLVVAATLLDLKAARLLPRGEVDDLSDLELLESRDLLFARLLQYKAYKQVADQFARWQLAAQRRYPRAVGMEEQFSSLLPPVKISHTPKSFAELAASVFRPKPPDTVGTSHVHGVEVSVPEQAGKVLDLLVECGEGVWMDFPDLITGCRVSLEVVGRFLALLELYKARAVSLEQEESLGALRVSWTGIHVDPAIVAASNWA
- soluble on expression in E. coli: not soluble

Sequence: MRDVDLTAAPAKKAKLDTGERIAVSGRVASVKLTNFMCHANLQIDFKTAQNNCFYIGGPNGSGKSALFAAINLGLGGRGSDNDRGNTVKSYIKDGTTQSKITITLTNAGLNAHPDFDDLISIERTINQASSTYIMKSVKVTSSDNHVERIVSRKKADVDRIVSRFSIHLSNPAFWMSQDRSRSFLANFKPANVYKLYLESTNLENIRLSYIRFADALDECFALIQLKAGEILNEQKKLKRMQEQRDLQAKLDQDRALVASFCWKLLFCKVRDYNDQIELTLKKQEAQKTLQDETKKEYAKNRAARTEVEKKIQEFRDEVEVQDAEIAEAREDLDAKKRKVLEFEEKIRECEQSIRKKTSEKKYMERTIVNAKNEVRILLEKQGNQDLTKRLTKVENDYKDISQQRENMELGGESAKLREKLDTVITDYKRKEEEKYTIQRDINQLRRKIEQDMETMRRSRATKKDAINKFGSHMAEILMEINRSKSRFQTVPKGPLGKYITLIDPKWAFTVEECIGNLANNFLCSSHLDAEILRNIFQSLRIPAQDRPTIIVAKCNGRAYTNLHEPSSDFKSIYRVLKFSDPDVHNVIIDKSNCEQFILIEDKTEAMELMGSNYPPQNAVKAYTLDGSQAYANGPNSQYRFYSGRGGHARGTFGNDQGDVDEGALARLIEDTKSEAMRLETQDLRKQDHELKVIYNERDQTKAAIDEFDRKLSNLRSQELQKERQAKDLRAELAQTANEDQVENLNESIEEMQKKIPLIEDEVKDILKNVADITADMAPVIQERKEAEHTLAEIQKETRDFASKSQKLQNELSKYDDAGEILKIRLDKVKADEGVFFHTEAKLKSERDDAMEMVENDKKNHPMPPGETDPPDLSSFPSTTEAQRKIEEMQKAVDRATVGCDTTITLECVKDFKDKLKRLKYLCRMIEDVLIELKNLHAARVKAYPSLKKFTELKVCNKFQELLAVRGHFIGGLEFDHEKETLNVNVQSSKEKDAMAGRRPEVLEVEEVDEHSYDDDSDDSTGPRRKKSKKSGQKKKRVRDLKGLSGGERSFVTAALVMSLWEVMEQPFRMMDEFDVFMDMMNRKLVMDLLVELATKKFPHNQFIFFTPQGIKELNMVDGLQVFEMNRVRD
- soluble on expression in E. coli: not soluble

Sequence: MTLPLNPAMAATFPPPVMEARRWIQGLSFPADRPLLNLSQAAPVEPPPAELRAALAEAALHDPQAHLYGPVLGLPALRAEIAAQWSAAYGGRIEPAQVAITQGCNQAFCAIMATLAGAGDEVILPTPWYFNHKMWLDMQGVMAVPLPTGPCLLPDAEEAAALVGPRTRAIVLVSPNNPGGVEYPAATLEAFRDLARARGLALIVDETYRDFDSRTGAPHALFADPDWDGVLVHLYSFSKAYRLTGHRVGAVVASAARLAQIEKFLDTVAICPSQLGQIGALWGIRNLAQWVAGERAEILARRTAMVGGFSALDGWTLLGCGAYFAYVEHPFDTPSDRLAPRLVQEAGVLLLPGTMFQPEGSEAGARQFRMAFANVDQAGIAELFSRLAQVTD
- soluble on expression in E. coli: not soluble

Sequence: MASDPITTQEFSPRQNAVLDQALRLLVEGGEKALTTSGLARAANCSKESLYKWFGDRDGLLAAMITFQQSKVRTFEKAGDRVSAPQLADHLEVFAHDLLDVLAGDVSLALNRLAIGQASRDGSKLGDLLLERGRRQIDRRARGLIEAGRRSGYLRFDDAEEAYRSFYGLIVSDLHVRMLLGEAPDKDFSARAKKAVVAFLTLYGTEKVHSELGGKVA
- soluble on expression in E. coli: soluble

Sequence: MMMSSEMIHVEVVYALPHEQRVLKLVVEQSATVEEIIRTSGILQMYPEIDLTVNKVGIFSRNVKLDARVRDKDRIEIYRPLLADPKEIRRKRAEQAKAAANQS
- soluble on expression in E. coli: not soluble

Sequence: MSLSDDPMASIKLLNLERENSAIAQYQSNIANLKTTLSSQETHLDSVNESLKSMRDIVLWGANGSLTDQDRSGMITELKSYRDSIESSFNAQDEEGHFLFSGTKTDTAALNKSSGAYVVEGNSDVRVVTVAKGVTMDSNMTAQEILDIGGGKNVLNQIDALIAEFEKPSPNFQAEVDASLNAIDDTMANVLGAMTEIGGRHNNLDLMDGAHSENKLFVDKVSGDLSALDYGEASVRLSNYMAALQATQASYVKINDLSLFDREGHHHHHH
- soluble on expression in E. coli: soluble

Sequence: MDQGMFYLSAAYIVKTMISGGNLLKEYIEERAVAIANYIIDYNATVRQTARKFGISKSTVHKDVTDRLENINPSLAAQARVVLDINKAERHIRGGMATKEKYQHQLQACSRK
- soluble on expression in E. coli: not soluble

Sequence: SMNFYSAYQHGFVRVAACTHHTTIGDPAANAASVLDMARACHDDGAALAVFPELTLSGYSIEDVLLQDSLLDAVEDALLDLVTESADLLPVLVVGAPLRHRHRIYNTAVVIHRGAVLGVVPKSYLPTYREFYERRQMAPGDGERGTIRIGGADVAFGTDLLFAASDLPGFVLHVEICEDMFVPMPPSAEAALAGATVLANLSGSPITIGRAEDRRLLARSASARCLAAYVYAAAGEGESTTDLAWDGQTMIWENGALLAESERFPKGVRRSVADVDTELLRSERLRMGTFDDNRRHHRELTESFRRIDFALDPPAGDIGLLREVERFPFVPADPQRLQQDCYEAYNIQVSGLEQRLRALDYPKVVIGVSGGLDSTHALIVATHAMDREGRPRSDILAFALPGFATGEHTKNNAIKLARALGVTFSEIDIGDTARLMLHTIGHPYSVGEKVYDVTFENVQAGLRTDYLFRIANQRGGIVLGTGDLSELALGWSTYGVGDQMSHYNVNAGVPKTLIQHLIRWVISAGEFGEKVGEVLQSVLDTEITPELIPTGEEELQSSEAKVGPFALQDFSLFQVLRYGFRPSKIAFLAWHAWNDAERGNWPPGFPKSERPSYSLAEIRHWLQIFVQRFYSFSQFKRSALPNGPKVSHGGALSPRGDWRAPSDMSARIWLDQIDREVPKG
- soluble on expression in E. coli: soluble

Sequence: MTNEFEILKPGKLLLASANLLDPNFKRTVLLMCEHNEEGSIGFILNKPMEFKVCEAISGFDEIDEPLHMGGPVQVDTVHVLHTRGDVIDGAVEVIPGLFWGGDKEQLSYLINTGVIKASEVRFFLGYAGWSAGQLEAEFEEGSWYTADASSEQVFTDEYERMWSRSVRSKGGEYCYVANSPELPGMNLEHHHHHH
- soluble on expression in E. coli: not soluble

Sequence: MIVAIIDGYTDEPAGLGVPPYLGLYPRYAYGAIKKARRDANIFYLTIDDLRATFEGEQGIKTKNKTPNFPKVKEILEKAEVIVFIGGLHTPGKYLSAVPGSVEEVSKFISHYNGVKVLGGPAFMGSAKIGGVKVTTKELRFAEEVFDYVVYGDIEAFLFDYFSGRELDPFRFRDYEELQPYALLGAEVVKQFPGYPEFVLIEIETQRGCPKAMGIGGCSFCTEPVRYRVVENRPQEYVAQEVKVFYNLGIRHFRIGRQSCIFSYMAKPNGRVPIPNPEEVEKLFKAVRLAAPNVKTLHVDNANPAVIANYPEESKRIAKAIIRYGTPGNVVAFGLETADPKVARINNLNATPEETYEAVKIINEVGGKRGYNGLPWLLPGINIIFGLPGETKRTYELTYEFLKKILDDGLMVRRINIRQVVVFPGTPLWNMRDKVKTEKHKKLIEHYRHKIRHEIDLPMLKRIVPVGTILRDVRAEIYDGELTFGRQFGSYPLIVGIPKRVELDRYYDVMIVDHGLRSVTGIPVPIDVNGESSKVLRWLPGIGKKTLARILAKRPFKSEEEFLSLLPEDVKKMYKGKIKV
- soluble on expression in E. coli: soluble

Sequence: METKQSMDYIIKGPGGTTKPIAPKLITVNPLNIIIESNSGQIDKTLELKNIYPCRIAFRVRTNGPTRYTVCPSKGFLSNGEKVAIQITLIDGTKYQSNHQFIVQAMPSPGDFADRKFIWKQPNFLGIFTNTRVKTMRPAQSLPKSNPKSPAKVSTPTDSGMSSPVASSESLVTPSVPSWSKSPSSPIDHGKFAENINDLSVQVKKAIDEKNTRTSEMVSVVNQIKAVEVDLDRQAQLVNELSERVKRGEIQYSNLVMHERSLRVELGRLKNNEAESIGQ
- soluble on expression in E. coli: not soluble

Sequence: MKAARQQAIVDLLINHKSLTTEALATRLNVSKETIRRDLSELQTQGKVLRNHGRAKYIHRENQDSGDPFHIRLKSHYAHKADIAREALAWIEEGMTIALDASSTCWYLARQLPDIPIQVFTNSHPICQELGKRERIALISSGGQLERKYGCYVNPSLISQLKSLDIDLFIFSCEGIDSGGDLWDSNAINADFKSILLRRASQSLLLIDKSKFNRSGEARIGHLDDVTHIVSDAPQSLEHHHHHH
- soluble on expression in E. coli: soluble

Sequence: MFVDQVKVYVKGGDGGNGMVAFRREKYVPKGGPAGGDGGKGGDVVFEVDEGLRTLMDFRYKKHFKAIRGEHGMSKNQHGRNADDMVIKVPPGTVVTDDDTKQVIADLTEHGQRAVIARGGRGGRGNSRFATPANPAPQLSENGEPGKERYIVLELKVLADVGLVGFPSVGKSTLLSVVSSAKPKIADYHFTTLVPNLGMVETDDGRSFVMADLPGLIEGAHQGVGLGHQFLRHIERTRVIVHVIDMSGLEGRDPYDDYLTINQELSEYNLRLTERPQIIVANKMDMPEAAENLEAFKEKLTDDYPVFPISAVTREGLRELLFEVANQLENTPEFPLYDEEEL
- soluble on expression in E. coli: soluble

Sequence: MGKLLTMAMPKGRIFEEAAGLLRQAGYRLPEEFEDSRKLIIDVPEENLRFILAKPMDVTTYVEHGVADVGIAGKDVMLEEERDVYEVLDLNISKCHLAVAGLPNTDWSGVAPRIATKYPNVASSYFREQGEQVEIIKLNGSIELAPLIGLADRIVDIVSTGQTLKENGLVETEHICDITSRFIVNPVSYRMKDDVIDEMASRLSLVVEGETAKLEHHHHHH
- soluble on expression in E. coli: soluble

Sequence: MGHHHHHHSHDVPEMPSIPNPFPELCCSPFTSVLSADLFPKANSRKKQVIKVYSEDETSRALDVPSDITARDVCQLLILKNHYIDDHSWTLFEHLPHIGVERTIEDHELVIEVLSNWGIEEENKLYFRKNYAKYEFFKNP
- soluble on expression in E. coli: not soluble

Sequence: MVKAVIFTDFDGTVTLEDSNDYLTDTLGFGKEKRLKVFEGVLDDTKSFRQGFMEMLESIHTPFPECIKILEKKIRLDPGFKDTFEWAQENDVPVIVVSSGMKPIIKVLLTRLVGQESIHKIDIVSNEVEIDAHDQWKIIYKDESPFGHDKSRSIDAYKKKFESTLKAGEQRPVYFYCGDGVSDLSAAKECDLLFAKRGKDLVTYCKKQNVPFHEFDTFKDILASMKQVLAGEKTVAELMEN
- soluble on expression in E. coli: soluble

Sequence: MTTSLIHMANHLDASTEEISLNYVLLGHPHHERAQHHPSYMDMIKGAIQAIDNGTGSSKAAILKYIAQNYHVGENLPKVNNHLRSVLKKAVDSGDIEQTRGHGATGSFRMGKECEKNLQVGIPVQTKPMLMLKEVRQKLENISKAEKTKPSTSSMSTNKKGKPISTMKKRGVMSKKRSSKNKMAPKAKSHGLKKKGPATKSSGLVHKAAGAKNEAAPTTKMELRTGTRKSYC
- soluble on expression in E. coli: not soluble

Sequence: MLRSSLLPFSYLYEKIINFRNTLYDKGFLKIKKLPVPVISVGNLSVGGSGKTSFVMYLADLLKDKRVCILSRGYKRKSKGTLIVSEYGNLKVSWEEAGDEPYLMAKLLPHVSVVASEDRYKGGLLALEKLSPEVFILDDGFQHRKLHRDLNILLLKKKDLKDRLLPAGNLREPLKEIRRADALVLTYQEVEPFEFFTGKPTFKMFREFCCLLNSDFEEVPFDILKEREVIAFSGLGDNGQFRKVLKNLGIKVKEFMSFPDHYDYSDFTPEEGEIYLTTPKDLIKLQGYENVFALNFKVKLEREEKLKKLIYRIFYLEHHHHHH
- soluble on expression in E. coli: soluble

Reference: the DeepSol protein solubility set
